Columns and labels:
Assay in all cases: purified protein, by the assay type;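 note: initial rates read in microplates at 30 °C, with enzyme activity quantified against an ammonia calibration curve recorded under the same assay conditions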
[1] = substrate: CC(C)C[C@H](NC(=O)[C@H](CCCCN)NC(=O)[C@H](CCC(N)=O)NC(=O)[C@H](Cc1c[nH]cn1)NC(=O)[C@H](Cc1c[nH]cn1)NC(=O)[C@@H](NC(=O)[C@H](CCC(=O)O)NC(=O)[C@H](Cc1ccc(O)cc1)NC(=O)CNC(=O)[C@H](CO)NC(=O)[C@H](CC(=O)O)NC(=O)[C@H](Cc1c[nH]cn1)NC(=O)[C@H](CCCNC(=N)N)NC(=O)[C@H](Cc1ccccc1)NC(=O)[C@@H](N)CCC(N)=O)C(C)C)C(=O)N[C@H](C(=O)N[C@@H](Cc1ccccc1)C(=O)N[C@@H](Cc1ccccc1)C(=O)N[C@@H](C)C(N)=O)C(C)C; conditions: other: recombinant human QC, buffer solution containing 1% DMSO; pH 8.8
Experimental: (§1) The initial velocities were evaluated and the enzymatic activity was determined from a standard curve of ammonia under assay conditions. All samples were measured at 30° C., using either the [sequence]luor Plus or the Sunrise (both from TECAN) reader for microplates. Kinetic data was evaluated using GraFit software.

[2] = substrate: CC(C)C[C@H](NC(=O)[C@H](CCCNC(=N)N)NC(=O)[C@H](CCCCN)NC(=O)[C@H](Cc1ccccc1)NC(=O)C[C@@H](N)CCC(N)=O)C(=O)N[C@@H](C)C(N)=O; conditions: other: text b245; pH 8.8
Experimental: as §1

[3] = substrate: C[C@H](NC(=O)[C@H](C)NC(=O)[C@H](C)NC(=O)[C@H](C)NC(=O)[C@@H](N)CCC(N)=O)C(N)=O; conditions: other: Table 6, influence of substrate length; pH 8.8
Experimental: as §1

[4] = substrate: C[C@H](NC(=O)[C@H](C)NC(=O)[C@H](CO)NC(=O)[C@H](C)NC(=O)[C@H](C)NC(=O)[C@@H](N)CCC(N)=O)C(N)=O; conditions: other: Table 6, influence of substrate length; pH 8.8
Experimental: as §1

[5] = substrate: N=C(N)NCCC[C@H](NC(=O)[C@H](Cc1ccccc1)NC(=O)[C@@H](N)CCC(N)=O)C(=O)N[C@@H](Cc1c[nH]cn1)C(=O)N[C@@H](CC(=O)O)C(=O)N[C@@H](CO)C(=O)NCC(=O)N[C@@H](Cc1ccc(O)cc1)C(=O)N[C@@H](CCC(=O)O)C(N)=O; conditions: other: recombinant human QC, buffer solution containing 1% DMSO; pH 8.8
Experimental: as §1

B1: human QC (Homo sapiens) (protein)
chain: VSPSASAWPEEKNYHQPAILNSSALRQIAEGTSISEMWQNDLQPLLIERYPGSPGSYAARQHIMQRIQRLQADWVLEIDTFLSQTPYGYRSFSNIISTLNPTAKRHLVLACHYDSKYFSHWNNRVFVGATDSAVPCAMMLELARALDKKLLSLKTVSDSKPDLSLQLIFFDGEEAFLHWSPQDSLYGSRHLAAKMASTPHPPGARGTSQLHGMDLLVLLDLIGAPNPTFPNFFPNSARWFERLQAIEHELHELGLLKDHSLEGRYFQNYSYGGVIQDDHIPFLRRGVPVLHLIPSPFPEVWHTMDDNEENLDESTIDNLNKILQVFVLEYLHL
Km [1]: 162 ± 12 µM | kcat [1]: 62 ± 3 s⁻¹ | kcat/Km [1]: 383000 ± 10000 M⁻¹ s⁻¹ | Km [2]: 2500 ± 200 µM | kcat [2]: 3.5 ± 0.1 s⁻¹ | kcat/Km [2]: 1300 ± 100 M⁻¹ s⁻¹ | Km [3]: 65 ± 3 µM | kcat [3]: 60.5 ± 0.7 s⁻¹ | kcat/Km [3]: 1.174e+06 ± 43000 M⁻¹ s⁻¹ | Km [4]: 79 ± 6 µM | kcat [4]: 55.3 ± 1.6 s⁻¹ | kcat/Km [4]: 700000 ± 33000 M⁻¹ s⁻¹ | Km [5]: 155 ± 4 µM | kcat [5]: 41.4 ± 0.4 s⁻¹ | kcat/Km [5]: 267000 ± 4000 M⁻¹ s⁻¹
